# Laboratory results taken from the supplement of paper PMC7125110.
# ± gives the standard error. This sample holds only a part of the variants without activity.
# B1: glmS ribozyme (parent)
# chain: AUAAAAGCGCCAGAACUACAGAAAUGUAGUUGACGAGGAGGAGGUUUAUCGAAUUUUCGGCGGAUGCCUCCAAA
# Columns and labels:
# Settings in all cases: with glucosamine-6-phosphate
# glucosamine-6-phosphate [1] = variants of: B1; test: self-cleavage kobs at 40 uM GlcN6P; higher = faster cleavage; RNA array
# Method in brief: (§1)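 On sequenced MiSeq chips, barcoded ribozyme variants were made in situ by E. coli RNA polymerase and followed at 37 °C through a hybridised Cy3 probe. Glucosamine-6-phosphate was flowed in at 40 μM to 10 mM in HEPES/KCl/Mg(OAc)2 buffer. Exponential fits to normalised per-tile medians gave kobs, and weighted Michaelis–Menten fits gave kcat and KM.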
# glucosamine-6-phosphate [2] = variants of: B1; test: self-cleavage kobs at 160 uM GlcN6P; higher = faster cleavage; RNA array
# Method in brief: as §1
# glucosamine-6-phosphate [3] = variants of: B1; test: self-cleavage kobs at 640 uM GlcN6P; higher = faster cleavage; RNA array
# Method in brief: as §1
# glucosamine-6-phosphate [4] = variants of: B1; test: self-cleavage kobs at 2500 uM GlcN6P; higher = faster cleavage; RNA array
# Method in brief: as §1
# glucosamine-6-phosphate [5] = variants of: B1; test: self-cleavage kobs at 10000 uM GlcN6P; higher = faster cleavage; RNA array
# Method in brief: as §1
Variant,self-cleavage kobs at 40 uM GlcN6P (glucosamine-6-phosphate [1]) [s⁻¹],self-cleavage kobs at 160 uM GlcN6P (glucosamine-6-phosphate [2]) [s⁻¹],self-cleavage kobs at 640 uM GlcN6P (glucosamine-6-phosphate [3]) [s⁻¹],self-cleavage kobs at 2500 uM GlcN6P (glucosamine-6-phosphate [4]) [s⁻¹],self-cleavage kobs at 10000 uM GlcN6P (glucosamine-6-phosphate [5]) [s⁻¹]
G9A C11G,< 1e-05,< 1e-05,< 1e-05,< 1e-05,< 1e-05
G13C G32C U47C,< 1e-05,–,–,–,–
C50U G59C,< 1e-05,< 1e-05,< 1e-05,< 1e-05,< 1e-05
U31A U55G,0.000331 ± 5.6e-05,0.000659 ± 9.3e-05,0.0036 ± 0.00064,0.00546 ± 0.0012,0.0123 ± 0.0044
G13C G41U C70U,< 1e-05,–,–,–,–
A36U A48U,< 1e-05,< 1e-05,–,< 1e-05,< 1e-05
G35A A48U C71U,< 1e-05,–,–,–,–
G13U G44U G51C,< 1e-05,–,–,–,–
G44A G63C,< 1e-05,–,< 1e-05,< 1e-05,< 1e-05
G32C U47G C67G,0.000392 ± 0.00015,–,–,–,6.01e-05 ± 2.5e-05
G41A G62A,< 1e-05,< 1e-05,< 1e-05,–,< 1e-05
G32A C67G C70U,< 1e-05,–,–,–,–
G40A U47C G62A A64C C70U,< 1e-05,–,–,< 1e-05,< 1e-05
A52C A64G,< 1e-05,< 1e-05,< 1e-05,–,–
G32C A64C,< 1e-05,< 1e-05,–,< 1e-05,< 1e-05
A12G U27C G29U,< 1e-05,–,< 1e-05,< 1e-05,–
G7U A36C G59U,< 1e-05,–,–,–,< 1e-05
G13U A36G G62U G66U C70A,< 1e-05,–,–,–,–
U46G C67G C68G,2.82e-05 ± 1.4e-05,–,–,7.29e-05 ± 2.5e-05,–
G13A A36G G44U A53U,< 1e-05,–,–,< 1e-05,< 1e-05
A33G C50U C67A,< 1e-05,–,–,–,–
G7A U30G G41C C58G G66A,< 1e-05,–,–,–,–
G9C A14U G51A C70G,< 1e-05,–,–,–,–
A39C A42G A64C C67G,< 1e-05,–,–,–,< 1e-05
C10G U46G,< 1e-05,< 1e-05,< 1e-05,< 1e-05,–
U54G G63A A64U C70U,< 1e-05,–,–,–,–
A15G U47G G60A C61U C68A,6.07e-05 ± 2.7e-05,–,0.000299 ± 9.2e-05,0.00013 ± 3.6e-05,–

Variant,self-cleavage kobs at 40 uM GlcN6P (glucosamine-6-phosphate [1]) [s⁻¹],self-cleavage kobs at 160 uM GlcN6P (glucosamine-6-phosphate [2]) [s⁻¹],self-cleavage kobs at 640 uM GlcN6P (glucosamine-6-phosphate [3]) [s⁻¹],self-cleavage kobs at 2500 uM GlcN6P (glucosamine-6-phosphate [4]) [s⁻¹],self-cleavage kobs at 10000 uM GlcN6P (glucosamine-6-phosphate [5]) [s⁻¹]
G9A A42C,< 1e-05,< 1e-05,< 1e-05,< 1e-05,–
A6U G13C C16A U45G,< 1e-05,–,–,–,–
G13U G35U G63C A64U,< 1e-05,–,–,–,–
A6U G37C G41C U47C A48U G59U,< 1e-05,–,–,–,< 1e-05
C8G C70A,< 1e-05,–,–,< 1e-05,< 1e-05
G32U G35A U57C,< 1e-05,< 1e-05,–,–,–
G13C A33G A48C,< 1e-05,–,–,< 1e-05,–
A15C C61U U69G,< 1e-05,–,–,–,< 1e-05
G32A U54G G59A,< 1e-05,–,–,–,–
U31A U49G C71U,< 1e-05,–,–,–,–
A12C G51U,< 1e-05,–,< 1e-05,–,–
G62U G63U C68G,< 1e-05,–,–,–,–
G51U A53C,< 1e-05,< 1e-05,< 1e-05,–,–
G41A G43U A53G C71G,< 1e-05,–,–,< 1e-05,–
U30A G43C,< 1e-05,–,< 1e-05,–,< 1e-05
G7C U47C,< 1e-05,< 1e-05,< 1e-05,–,< 1e-05
A6U A12G C16U G38A U54A C68A,8.86e-05 ± 3.6e-05,–,0.000335 ± 0.0001,0.000395 ± 0.00011,8.53e-05 ± 1.8e-05
G13A G59U,< 1e-05,–,–,–,–
A53C C61G,< 1e-05,–,< 1e-05,–,< 1e-05
C34U G35U,< 1e-05,< 1e-05,< 1e-05,< 1e-05,< 1e-05
G29C A36U,< 1e-05,–,< 1e-05,–,–
C11A A15C U45G C70U,< 1e-05,–,–,–,–
A53G U54A,0.000851 ± 0.00024,0.00267 ± 0.00057,0.0083 ± 0.0014,0.0106 ± 0.0043,0.0724 ± 0.027
C34G G41C,< 1e-05,< 1e-05,–,< 1e-05,< 1e-05
A12C U31A C34U A36C A52G C58A G63U,< 1e-05,–,–,–,< 1e-05
C8G C10A G60U,< 1e-05,–,–,–,< 1e-05
